Data from US20180142032A1 (Sanofi, published 2018).
Values belong to the binder of their own block, whether it stands above or below them.

Experiments:
LAMP1::histag [1] = target: T1, LAMP1::histag (human, UniProt P11279 29-382); test: ELISA with LAMP1
T1 construct: extracellular domain without signal peptide, C-terminal 6 His tag, made in HEK293 cells; also called recombinant human LAMP1; human LAMP1 (29-382)
T1 sequence: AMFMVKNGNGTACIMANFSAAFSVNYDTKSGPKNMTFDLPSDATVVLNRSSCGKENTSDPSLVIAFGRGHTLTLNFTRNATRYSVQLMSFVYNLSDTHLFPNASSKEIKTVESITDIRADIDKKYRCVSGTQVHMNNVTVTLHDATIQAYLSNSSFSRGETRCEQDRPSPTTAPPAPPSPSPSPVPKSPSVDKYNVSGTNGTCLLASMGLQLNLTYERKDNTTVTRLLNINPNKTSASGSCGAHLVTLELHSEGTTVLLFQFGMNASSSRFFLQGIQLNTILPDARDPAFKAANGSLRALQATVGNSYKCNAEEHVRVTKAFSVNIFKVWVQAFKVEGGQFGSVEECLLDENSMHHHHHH

[2] = target: T2, mLAMP1_L1_LAMP1_L234::histag (mouse/human hybrid); test: ELISA
T2 construct: also called Loop1: mLAMP1 Loop2-4: hLAMP1
T2 chain: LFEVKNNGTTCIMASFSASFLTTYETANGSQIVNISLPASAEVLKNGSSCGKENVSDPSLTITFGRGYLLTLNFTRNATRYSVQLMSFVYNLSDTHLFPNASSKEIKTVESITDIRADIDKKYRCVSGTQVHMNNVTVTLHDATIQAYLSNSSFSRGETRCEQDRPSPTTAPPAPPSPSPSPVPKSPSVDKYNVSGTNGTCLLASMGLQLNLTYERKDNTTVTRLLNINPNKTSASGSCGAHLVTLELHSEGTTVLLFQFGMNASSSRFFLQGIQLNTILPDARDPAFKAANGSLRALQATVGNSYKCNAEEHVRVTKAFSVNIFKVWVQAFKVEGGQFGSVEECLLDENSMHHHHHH

[3] = target: T3, LAMP1_L12_mLAMP1_L34::histag (human/mouse hybrid); test: ELISA
T3 construct: human LAMP1 (29-195) and mouse LAMP1 (190-369), His tag; also called Loop1-2: hLAMP1 Loop3-4: mLAMP1
T3 chain: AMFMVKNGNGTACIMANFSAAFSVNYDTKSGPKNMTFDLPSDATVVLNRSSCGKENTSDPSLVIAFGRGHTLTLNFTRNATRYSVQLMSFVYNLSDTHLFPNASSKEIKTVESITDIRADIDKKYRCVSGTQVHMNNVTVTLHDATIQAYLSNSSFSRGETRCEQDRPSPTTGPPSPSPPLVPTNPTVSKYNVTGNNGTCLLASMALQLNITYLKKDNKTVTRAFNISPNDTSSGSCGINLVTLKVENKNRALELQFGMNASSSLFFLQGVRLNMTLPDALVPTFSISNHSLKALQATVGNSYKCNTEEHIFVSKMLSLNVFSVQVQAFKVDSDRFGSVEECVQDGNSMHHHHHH

LAMP1::histag [4] = target: T1, LAMP1::histag; test: ELISA
[5] = target: T4, mLAMP1_L12_LAMP1_L34::histag (mouse/human hybrid); test: ELISA
T4 construct: mouse LAMP1 (25-189) and human LAMP1 (196-382), His tag; also called Loop1-2: mLAMP1 Loop3-4: hLAMP1
T4 chain: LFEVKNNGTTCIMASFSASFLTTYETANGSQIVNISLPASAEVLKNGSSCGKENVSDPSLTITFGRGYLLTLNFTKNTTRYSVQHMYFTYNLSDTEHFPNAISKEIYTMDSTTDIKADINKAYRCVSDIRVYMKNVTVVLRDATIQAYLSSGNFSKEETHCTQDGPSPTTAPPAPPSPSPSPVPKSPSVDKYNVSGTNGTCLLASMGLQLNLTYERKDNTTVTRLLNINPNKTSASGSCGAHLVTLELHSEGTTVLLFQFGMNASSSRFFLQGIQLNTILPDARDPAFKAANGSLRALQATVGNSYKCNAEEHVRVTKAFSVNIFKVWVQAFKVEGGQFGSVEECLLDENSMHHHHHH

[6] = target: T5, LAMP1_L123_mLAMP1_L4::histag (human/mouse hybrid, UniProt P11279 29-375); test: ELISA
T5 construct: human LAMP1 (29-309) and mouse LAMP1 (299-369), His tag; also called Loop1-3: hLAMP1 Loop4: mLAMP1
T5 chain: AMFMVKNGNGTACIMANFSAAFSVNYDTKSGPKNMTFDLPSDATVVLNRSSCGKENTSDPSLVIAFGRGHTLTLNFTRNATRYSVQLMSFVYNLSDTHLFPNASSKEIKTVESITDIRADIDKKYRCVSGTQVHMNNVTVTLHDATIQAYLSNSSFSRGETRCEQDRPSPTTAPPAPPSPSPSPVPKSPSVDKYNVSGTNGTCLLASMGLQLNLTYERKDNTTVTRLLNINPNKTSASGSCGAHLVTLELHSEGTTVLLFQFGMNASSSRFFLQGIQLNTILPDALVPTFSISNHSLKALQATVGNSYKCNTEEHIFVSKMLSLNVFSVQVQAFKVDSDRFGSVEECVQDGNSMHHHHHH

cLAMP1::histag = target: T6, cLAMP1::histag (cynomolgus monkey, UniProt P11279 29-380 (human entry)); test: ELISA on coated recombinant LAMP1 extracellular domain, detected with anti-mouse IgG-HRP; antibody concentration not given
T6 construct: extracellular domain with C-terminal tag that includes 6 His; also called cynomolgus LAMP1 (27-380); cynomolgus monkey LAMP1 protein
T6 chain: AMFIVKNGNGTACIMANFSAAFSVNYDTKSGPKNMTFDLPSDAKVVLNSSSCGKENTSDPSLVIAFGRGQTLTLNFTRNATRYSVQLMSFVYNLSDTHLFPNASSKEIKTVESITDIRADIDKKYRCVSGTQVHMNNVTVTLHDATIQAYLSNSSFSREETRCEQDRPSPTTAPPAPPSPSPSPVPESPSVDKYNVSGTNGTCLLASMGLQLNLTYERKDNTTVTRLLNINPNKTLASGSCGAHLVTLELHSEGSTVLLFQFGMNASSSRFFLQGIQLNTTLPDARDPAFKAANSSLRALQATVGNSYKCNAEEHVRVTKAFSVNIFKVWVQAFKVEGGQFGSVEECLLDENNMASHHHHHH
Source text: The antibody binding was visualized by adding TMB-H₂O₂ buffer and read at a wavelength of 450 nm.

EC50 (LAMP1::histag [1]): 250 pM
binding result [2]: no binding
EC50 [3]: 250 pM
EC50 (LAMP1::histag [4]): 250 pM
binding result [5]: no binding
EC50 [6]: 250 pM
B1: MAb2 (antibody, mouse IgG1, kappa)
heavy: QVQLQQSAAELARPGASVKMSCKASGYTFTSYTMHWVKQRPGQGLEWIGYFNPSSGYPEYNQKFKDKTTLTADKSSNTAFIQLNSLTSEDSAVYYCSRGYYYGSRGYALDFWGQGASVTVSSAKTTPPSVYPLAPGSAAQTNSMVTLGCLVKGYFPEPVTVTWNSGSLSSGVHTFPAVLQSDLYTLSSSVTVPSSTWPSETVTCNVAHPASSTKVDKKIVPRDCGCKPCICTVPEVSSVFIFPPKPKDVLTITLTPKVTCVVVDISKDDPEVQFSWFVDDVEVHTAQTQPREEQFNSTFRSVSELPIMHQDWLNGKEFKCRVNSAAFPAPIEKTISKTKGRPKAPQVYTIPPPKEQMAKDKVSLTCMITDFFPEDITVEWQWNGQPAENYKNTQPIMDTDGSYFVYSKLNVQKSNWEAGNTFTCSVLHEGLHNHHTEKSLSHSPGK
light: NIVLTQSPVSLAVSLGQRATISCRASESVDINGNTFMHWYQQKPGQSPKLVIYAASNIESGVPARFSGSGSSTDFTFTIDPVEADDVATYYCQQNIEDPWTFGGGTKVEIKRADAAPTVSIFPPSSEQLTSGGASVVCFLNNFYPKDINVKWKIDGSERQNGVLNSWTDQDSKDSTYSMSSTLTLTKDEYERHNSYTCEATHKTSTSPIVKSFNRNEC
notes: murine monoclonal IgG, kappa, from hybridoma; also called murine MAb2

EC50 (LAMP1::histag [1]): 180 pM
EC50 [2]: 150 pM
EC50 [3]: 180 pM
EC50 (LAMP1::histag [4]): 180 pM
binding result [5]: no binding
EC50 [6]: 160 pM
binding result (cLAMP1::histag): binds
B2: MAb1 (antibody, mouse IgG2a, kappa)
heavy: QVQLQQSGAELVKPGASVKMSCKASGYIFTNYNIHWVKKSPGQGLEWIGAIYPGNGDAPYSQKFKDKATLTADKSSSTTYMQLSRLTSEDSAVYYCVRANWDVAFAYWGQGTLVSVSAAKTTAPSVYPLAPVCGDTTGSSVTLGCLVKGYFPEPVTLTWNSGSLSSGVHTFPAVLQSDLYTLSSSVTVTSSTWPSQSITCNVAHPASSTKVDKKIEPRGPTIKPCPPCKCPAPNLLGGPSVFIFPPKIKDVLMISLSPIVTCVVVDVSEDDPDVQISWFVNNVEVHTAQTQTHREDYNSTLRVVSALPIQHQDWMSGKEFKCKVNNKDLPAPIERTISKPKGSVRAPQVYVLPPPEEEMTKKQVTLTCMVTDFMPEDIYVEWTNNGKTELNYKNTEPVLDSDGSYFMYSKLRVEKKNWVERNSYSCSVVHEGLHNHHTTKSFSRTPGK
light: DIQMTQSPPSLSASLGGKVTITCKASQDIDRYMAWYQDKPGKGPRLLIHDTSTLQPGIPSRFSGSGSGRDYSFSISNLEPEDIATYYCLQYDNLWTFGGGTKLEIKRADAAPTVSIFPPSSEQLTSGGASVVCFLNNFYPKDINVKWKIDGSERQNGVLNSWTDQDSKDSTYSMSSTLTLTKDEYERHNSYTCEATHKTSTSPIVKSFNRNEC
notes: murine monoclonal IgG, kappa, from hybridoma; also called murine MAb1
